B1: GST-Nek9 810–828 (domain or fragment, human, UniProt Q8TD19 810-828, looked up)
chain: GWLRKELENAEFIPMPDSP
notes: source: E. coli, purified (glutathione sepharose)
B2: GST-Nek9-CTD (aa 726–979) (domain or fragment, human, UniProt Q8TD19 726-979, looked up)
chain: KVLNSKTIRSNSSGLSIGTVFQSSSPGGGGGGGGGEEEDSQQESETPDPSGGFRGTMEADRGMEGLISPTEAMGNSNGASSSCPGWLRKELENAEFIPMPDSPSPLSAAFSESEKDTLPYEELQGLKVASEAPLEHKPQVEASSPRLNPAVTCAGKGTPLTPPACACSSLQVEVERLQGLVLKCLAEQQKLQQENLQIFTQLQKLNKKLEGGQQVGMHSKGTQTAKEEMEMDPKPDLDSDSWCLLGTDSCRPSL
notes: Nek9, human, C-terminal domain, residues 726-979; For some kinase assays the GST tag was removed with 3C protease; also called Nek9 non-catalytic C-terminal domain; N9 CTD; source: E. coli, purified (glutathione sepharose); not shown: GST, N-terminal, kept
B3: Nek7 N90R (enzyme)
chain: not shown
B4: Nek7 N90K (enzyme)
chain: not shown
B5: Nek7 N90A (enzyme)
chain: not shown
B6: synthetic peptide corresponding to aa 810–828 of Nek9 (peptide, UniProt Q8TD19 810-828, looked up)
peptide: GWLRKELENAEFIPMPDSP
notes: source: synthetic peptide (Peptide Synthetics)

How the values were obtained:
[1] = target: T1, Nek7-His6, full-length wild type, unphosphorylated (human, UniProt Q8TDX7 1-302); test: pull-down; GST co-precipitation: 100 μg GST-Nek9 protein immobilised on glutathione sepharose-4B beads, incubated with 100 μg Nek7 in 500 μl for 1 h at 4 °C; 50 mM HEPES pH 7.5, 300 mM NaCl, 5% glycerol, 5 mM dithiothreitol, 0.05% Tween-20; Coomassie staining or immunoblot with α-His6; conditions: both partners purified
T1 construct: Nek7 (NIMA-related kinase 7), human, full length; also called Nek7^WT; unphosphorylated Nek7^WT; source: E. coli Codonplus RPIL, co-expressed with or without λ-phosphatase, purified (HisTRAP, Superdex-200); not shown: His6, C-terminal, kept

Nek7 N90R = target: B3; test: as above; conditions: both partners purified
Nek7 N90K = target: B4; test: as above; conditions: both partners purified
Nek7 N90A = target: B5; test: as above; conditions: both partners purified
Nek7 K96E = target: T2, Nek7 K96E (human, UniProt Q8TDX7 1-302, K96E); test: as above; conditions: both partners purified
T2 construct: Nek7, human, full length; source: E. coli Codonplus RPIL, co-expressed with or without λ-phosphatase, purified (HisTRAP, Superdex-200)

Nek7^Y97F, full length [2] = target: T3, Nek7^Y97F, full length (human, UniProt Q8TDX7 1-302, Y97F); test: as above; conditions: both partners purified
T3 construct: Nek7, human, full length; residues 20-300 modelled in the structure; source: E. coli Codonplus RPIL, co-expressed with or without λ-phosphatase, purified (HisTRAP, Superdex-200)

Nek7^Y97A, full length = target: T4, Nek7^Y97A, full length (human, UniProt Q8TDX7 1-302, Y97A); test: as above; conditions: both partners purified
T4 construct: Nek7, human, full length; source: E. coli Codonplus RPIL, co-expressed with or without λ-phosphatase, purified (HisTRAP, Superdex-200)

phosphorylated Nek7^WT = target: T5, phosphorylated Nek7^WT (human, UniProt Q8TDX7 1-302, phosphorylated (sites not stated for this preparation)); test: as above; conditions: both partners purified
T5 construct: Nek7, human, full length; also called phospho-Nek7^WT; source: E. coli Codonplus RPIL, co-expressed with or without λ-phosphatase, purified (HisTRAP, Superdex-200)

[3] = target: the molecule itself; test: cell-based or functional assay
Nek7^Y97F, full length [4] = target: T3, Nek7^Y97F, full length; test: crystal structure; co-crystallisation by sitting drop vapour diffusion, Nek7^Y97F at 440 μM and Nek9 peptide at 880 μM; 0.2 M potassium thiocyanate, 0.1 M bis-Tris propane pH 7.5, 20% PEG 3350; 2.78 Å, space group P3_(1) 2 1; conditions: both partners purified

T1 sequence (Q8TDX7 whole entry): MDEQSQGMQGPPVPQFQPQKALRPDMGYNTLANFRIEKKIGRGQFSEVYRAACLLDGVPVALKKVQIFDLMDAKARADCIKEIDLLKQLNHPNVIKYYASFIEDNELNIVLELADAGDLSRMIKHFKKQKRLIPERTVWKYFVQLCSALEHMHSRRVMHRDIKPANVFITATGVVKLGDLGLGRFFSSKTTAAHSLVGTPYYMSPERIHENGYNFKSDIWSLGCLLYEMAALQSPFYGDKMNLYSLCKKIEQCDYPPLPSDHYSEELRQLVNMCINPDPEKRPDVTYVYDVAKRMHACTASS
T3 sequence (Q8TDX7 whole entry Y97F, the tested form may be a part): as the sequence (Q8TDX7 whole entry) above, with Y97F counted along it
Chain of Nek7 N90R (Q8TDX7 whole entry N90R): as the sequence (Q8TDX7 whole entry) above, with N90R counted along it
T5 sequence (Q8TDX7 whole entry): as the sequence (Q8TDX7 whole entry) above
Chain of Nek7 N90K (Q8TDX7 whole entry N90K): as the sequence (Q8TDX7 whole entry) above, with N90K counted along it
Chain of Nek7 N90A (Q8TDX7 whole entry N90A): as the sequence (Q8TDX7 whole entry) above, with N90A counted along it
T4 sequence (Q8TDX7 whole entry Y97A): as the sequence (Q8TDX7 whole entry) above, with Y97A counted along it
T2 sequence (Q8TDX7 whole entry K96E): as the sequence (Q8TDX7 whole entry) above, with K96E counted along it

B1
binding result [1]: binds

B2
binding result [1]: binds | binding result (Nek7 N90R): binds | binding result (Nek7 N90K): binds | binding result (Nek7 N90A): binds | binding result (Nek7 K96E): binds | binding result (Nek7^Y97F, full length [2]): binds | binding result (Nek7^Y97A, full length): binds | binding result (phosphorylated Nek7^WT): binds

B3
in vitro kinase activity of the initially unphosphorylated Nek7 mutant, in the presence or absence of Nek9-CTD, against WT (32P incorporation, scintillation counting) [3]: ≤ 10 fold

B4
in vitro kinase activity of the initially unphosphorylated Nek7 mutant, in the presence or absence of Nek9-CTD, against WT (32P incorporation, scintillation counting) [3]: ≤ 10 fold

B5
fold decrease in in vitro kinase activity of the initially unphosphorylated Nek7 mutant, against WT (32P incorporation, scintillation counting) [3]: ~2 fold

B6
binding result (Nek7^Y97F, full length [4]): binds

Reference: article PMC4632185, “Mechanistic basis of Nek7 activation through Nek9 binding and induced dimerization” (Nature Communications, 2015)
